Data published in the supplement of paper PMC12042874.
± gives the uncertainty stated by the source.

Test: amyloid nucleation score (Sup35N fusion, yeast selection) (log enrichment); library NNK2; higher = more nucleation; inactive = no reads after selection
How it was run: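 Peptides of 20 random codons fused to Sup35N were expressed in psi-negative yeast, induced 24 hours with 100 μM copper sulfate, then grown 7 days at 30°C on medium lacking adenine and uracil. Input and output plasmid inserts were Illumina-sequenced. Nucleation score is the DiMSum log enrichment of output over input reads, centred on the mode score of non-aggregating sequences, excluding sequences with under 100 input reads. Random libraries had three technical output replicates.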

| Substance | amyloid nucleation score |
| --- | --- |
| DWVINS | -0.462 ± 0.78 |
| DWWLLYNCRSRMMGIKADPL | inactive |
| DWWLNGLFP | inactive |
| DYAIVSGVLLTQMQQLMCFV | 0.466 ± 0.33 |
| DYILLARYSRNVHCS | -0.343 ± 0.37 |
| DYITCQFYLTVFELSCCMSC | 7.932 ± 0.047 |
| DYLYCSAQFRHMRVQSPGNA | 0.885 ± 0.2 |
| DYMNGDKSKKGDYWIMSVNS | 0.154 ± 0.65 |
| DYNFIQRNNCGALCKYAKTL | -1.55 ± 0.62 |
| DYVSGYRVGQFVMLLGRLRN | -0.205 ± 0.55 |
| EACVISNGISILL | -0.54 ± 0.35 |
| EAHILRLYMLSRLSGIVHMV | 0.434 ± 0.56 |
| EARVSDSVFGLVVVKTMCYV | 5.535 ± 0.043 |
| EASKGHISTVLWLGGVIS | -0.352 ± 0.65 |
| ECRFKDTATRFRQSLRFYNM | inactive |
| ECSRSINYLRLVLNLE | 0.708 ± 0.34 |
| ECVLMTGTMWSTSSALW | 0.877 ± 0.53 |
| EDEWMHLVRVQFQGKDRKAA | 0.92 ± 0.28 |
| EEMMFPFAFVFFICSFRNRL | 2.9 ± 0.065 |
| EEMMSRYSLTVKML | 0.391 ± 0.34 |
| EEVVVVWFIRDKDLALKLVV | inactive |
| EEWSYVDSEPSIRFSRIQDV | -0.516 ± 0.42 |

| Substance | amyloid nucleation score |
| --- | --- |
| EEWYHADVSCVHRKIPNATR | 0.644 ± 0.81 |
| EFCIPKNLRSW | 0.182 ± 0.22 |
| EFIEYTSFYWWNLLRLGVHS | -0.61 ± 0.23 |
| EFIMTCAQVPRTFDVHSNRS | 6.479 ± 0.054 |
| EFKHSLIVASARRRNDFGYR | 0.224 ± 0.43 |
| EFLRRD | 0.055 ± 0.26 |
| EFNLLRYSVETNIISEKKLV | 0.129 ± 0.54 |
| EFQGVS | 0.343 ± 0.64 |
| EFQIMFVFHWT | inactive |
| EFSFHSWQLVTSCQEECCLD | inactive |
| EGCMSFFKRSQYATDQDLGA | -0.24 ± 0.39 |
| EGFEFCWINNMDWSMPWVTN | 5.08 ± 0.062 |
| EGFHGRMCHEHGKVLKAID | 0.178 ± 0.24 |
| EGLLHTYCICGFLVYHYMEV | 3.77 ± 0.054 |
| EGNRNEVSFYVMFSAVPSGL | 9.221 ± 0.059 |
| EGRCNYTGHMFCRYLCKHYT | -0.088 ± 1.1 |
| EGTFGAPFVTSLLSLRFECV | -0.85 ± 0.63 |
| EIIYSQSDSVYGCGGY | inactive |
| EKWLGLFKTYAESFDSCCLG | -0.581 ± 0.29 |
| ELCTKAINVMN | 0.433 ± 0.48 |
| ELLEGYSLKEMYAFPVKWAV | 0.741 ± 0.6 |
| ELLGSLCRNRVGTWTICNMS | 0.52 ± 0.34 |

| Substance | amyloid nucleation score |
| --- | --- |
| ELLGVQFRSRKYAATQNQWP | 2.03 ± 0.19 |
| ELLSYRRSIKYCMGLEEPWA | -0.119 ± 0.49 |
| ELSGGQTLLCRSVYLDVDRV | 3.74 ± 0.064 |
| ELWLYFFL | -1.07 ± 0.34 |
| ELWVSQTTNEFSFVVGHVVC | 0.025 ± 0.5 |
| EMICVYSNFMKWVWSSFQTV | -0.832 ± 0.33 |
| EMSRMASNISRMKVSRASKH | 1.15 ± 0.38 |
| ENFGVVMRWGYIRLLLQANW | inactive |
| ENGRYHFFKAEHWFCRLMMM | inactive |
| ENGTLTIYMVAL | 4.39 ± 0.075 |
| ENSLVYI | inactive |
| EQSNSNPSHKY | inactive |
| ERDGSIMCSWTVSEHKSCGY | inactive |
| ERMFNMIALVRRAGGERNRT | 4.43 ± 0.059 |
| ERPWRRQRCAFKVSWVGADL | 0.632 ± 0.19 |
| ERYKCVYDNDRLMSLTSPDL | -0.429 ± 0.29 |
| ERYLCVVDMEIKGRALRKRW | -0.144 ± 0.44 |
| ESDMCFVWSIELVGLMFKLI | -0.979 ± 0.24 |
| ESGCQGNSLKCVLSRCNGWR | 3.45 ± 0.1 |
| ESICAKWFMIDMNSTHWTGF | -0.614 ± 0.41 |
| ESKIACCDMMLW | 5.89 ± 0.062 |
| ESLGEVKGYTSDPMVLVCFE | -0.167 ± 0.23 |

| Substance | amyloid nucleation score |
| --- | --- |
| ESQWYVIDGAPFPTSGVLMS | 0.013 ± 0.35 |
| ETSANDLEPNLSVHHSGFSR | 0.078 ± 0.32 |
| EVGVV | 0.622 ± 0.18 |
| EVLRYGAVWMISRLVGLSLP | 0.754 ± 0.31 |
| EVPCWMTRSSMECNVDYWEG | 0.797 ± 0.2 |
| EVSHAIYRWTLEKYCWNCHV | 0.09 ± 0.24 |
| EVTILVGKGERLKRTYCSR | 0.329 ± 0.2 |
| EVVNWSR | -0.367 ± 0.35 |
| EVWYTGYVCLWMYIAWINID | inactive |
| EWIWM | -0.129 ± 0.43 |
| EWPMPWMFHRCSG | -0.138 ± 0.37 |
| EYFMATE | -0.248 ± 0.35 |
| EYGVAT | 1.17 ± 0.18 |
| EYRSDCMDYLGDVCWCPNIL | inactive |
| FACLYKTMQQLMGIKMCVKA | 0.277 ± 0.4 |
| FAGYECIE | -0.881 ± 0.37 |
| FAKLKIIGSARKYK | -1.19 ± 0.61 |
| FALREYGYLSSYYFCMGGPT | 3.56 ± 0.094 |
| FASRSCEFCEREY | 3.2 ± 0.085 |
| FASVLLCSIRRALGRVVRPL | 0.144 ± 0.55 |
